Experimental data reported in US9605038B2, “Fusion peptide comprising dhFas-1 domain and MMP substrate and use thereof for preventing and treating rheumatoid arthritis” (Kyungpook National University Industry-Academic Cooperation …, priority 2010, dated 2017).
Changes are numbered by the printed parent chain. Entries after “also recorded” stand apart in the source; their conditions may differ. Each block holds one molecule with its values, some of them ahead of it.

Experiments:
[1] = test system: mouse fibroblast (NIH3T3); experiment: βig-h3-mediated cell adhesion test, NIH3T3; format: cell-based; details: NIH3T3, βig-h3 5 ug/ml coat
Method: (§1) Human βig-h3 was introduced into a 96-well plate at a concentration of 5 ug/ml, and coated for 14 hours at 4° C. In DMEM+0.5% BSA (Bovine Serum Albumin) culture medium, human fibroblast (NIH3T3) was introduced, and hsdhFas-1 peptide at concentrations was injected thereto, followed by mixing. The resultant mixture was cultured at 37° C. for 30 minutes, and plated on a coated well. It was cultured for 2 hours, and washed with PBS (phosphate buffered saline) so as to remove unattached cells, and then added with a substrate (4-Nitrophenyl N-acetyl-β-D-glucosaminide, Sigma, U.S.) to be activated by β-N-acetylglucosaminidase within the cell, followed by culturing at 37° C. for 1 hour. Then, a glycine EDTA solution (0.5M EDTA, 50 mM glycine, pH 10.4) was added thereto, and the coloring extent according to the number of attached cells was measured by absorbance.
Also, a structurally modified peptide of a fas-1 domain of mouse βig-h3 was synthesized as a recombinant peptide (hereinafter, referred to as ‘mdhFas-1peptide’, see FIG. 2), and a mouse cell line, that is, NIH3T3 cell line, was used to test the inhibiting effect by mdhFas-1 peptide on adhesion and migration of a Synovial membrane cell in the same manner as that in the test using human βig-h3.
as §1, with “βig-h3” for “Human βig-h3”, “mouse” for “human”, “MFK23, MFK24, MFK25 or MFK27” for “hsdhFas-1 peptide”

NIH3T3 = experiment: βig-h3-mediated cell migration test (transwell), NIH3T3; format: cell-based, mouse; details: 7 hours
Method: In the lower compartment of a transwell filter having an 8 um hole size allowing cells to be migrated, βig-h3 was cultured at 4° C. for 12 to 14 hours and coated. In DMEM+0.5% BSA culture medium, NIH3T3 was introduced, and administered with MFK23, MFK24 or MFK25 at concentrations, followed by mixing. The resultant mixture was cultured at 37° C. for 30 minutes, inoculated into the upper chamber of the coated well, and cultured for 7 hours at 37° C. Then, the cells migrated to the lower compartment of the filter were fixed by paraformaldehyde, and strained by a crystal violet. The cells […] remaining in the upper chamber were wiped out and the number of cells migrated to the lower compartment was microscopically counted.

MMP1 = molecular target: T1, MMP1 (Homo sapiens, UniProt P03956); experiment: Enzymatic digestion test, MMP1; format: biochemical; details: 3 ug peptide, MMP1 5, 10, 50 ng, 37° C. 4 hours
T1 sequence (P03956 100-469): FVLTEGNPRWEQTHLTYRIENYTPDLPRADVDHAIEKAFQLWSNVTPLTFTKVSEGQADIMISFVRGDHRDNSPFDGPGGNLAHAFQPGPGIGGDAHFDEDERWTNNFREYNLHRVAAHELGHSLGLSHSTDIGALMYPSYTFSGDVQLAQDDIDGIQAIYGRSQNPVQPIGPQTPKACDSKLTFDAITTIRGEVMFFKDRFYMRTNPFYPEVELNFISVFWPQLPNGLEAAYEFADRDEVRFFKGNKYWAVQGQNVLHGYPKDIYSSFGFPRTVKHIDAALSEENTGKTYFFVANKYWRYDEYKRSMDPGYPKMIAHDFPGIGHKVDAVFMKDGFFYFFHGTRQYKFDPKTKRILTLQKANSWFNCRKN
Method: (§2) 3 ug of synthesized mdhFas-1-MMPsubstrate structure modified protein, together with MMP1 (5 ng, 10 ng and 50 ng), MMP2 (100 ng, 200 ng and 800 ng), MMP3 (10 ng, 50 ng and 100 ng), cathepsin D (5 ng, 10 ng and 50 ng), cathepsin L (100 ng, 200 ng and 800 ng), and cathepsin K (10 ng, 50 ng and 100 ng), was mixed with enzyme buffer (150 mM NaCl, 5 mM. CaCl2, 20 mM Tris-HCl pH7.5), and reacted at 37° C. for 4 hours. The resultant product was subjected to electrophoresis through 15% polyacrylamide gel, transferred to a Nitrocellulose Membrane (Schleicher & Schuell), blocked at room temperature for 1 hour with TBST solution containing 3% BSA (20 mmole/L Tris-HCl, 137 mmole//l NaCl, 0.1% Tween-20), washed TBST solution three times (each for 10 minutes), and reacted with primary antibody (anti-Histidine or anti-Bigh3) for 1 hour. The resultant product was washed with TBST solution three times (each for 10 minutes), reacted with a secondary antibody conjugated to horseradish peroxidase (HRP) for 1 hour, washed TBST solution three times (each for 10 minutes), and visualized by ECL (Amersham Biosciences, UK) so as to detect the change in the amount of mdhFas-1-MMPsubstrate-RGD structural peptide.

MMP2 = molecular target: T2, MMP2 (Homo sapiens, UniProt P08253); experiment: Enzymatic digestion test, MMP2; format: biochemical; details: 3 ug peptide, MMP2 100, 200, 800 ng, 37° C. 4 hours
T2 sequence (P08253 110-660): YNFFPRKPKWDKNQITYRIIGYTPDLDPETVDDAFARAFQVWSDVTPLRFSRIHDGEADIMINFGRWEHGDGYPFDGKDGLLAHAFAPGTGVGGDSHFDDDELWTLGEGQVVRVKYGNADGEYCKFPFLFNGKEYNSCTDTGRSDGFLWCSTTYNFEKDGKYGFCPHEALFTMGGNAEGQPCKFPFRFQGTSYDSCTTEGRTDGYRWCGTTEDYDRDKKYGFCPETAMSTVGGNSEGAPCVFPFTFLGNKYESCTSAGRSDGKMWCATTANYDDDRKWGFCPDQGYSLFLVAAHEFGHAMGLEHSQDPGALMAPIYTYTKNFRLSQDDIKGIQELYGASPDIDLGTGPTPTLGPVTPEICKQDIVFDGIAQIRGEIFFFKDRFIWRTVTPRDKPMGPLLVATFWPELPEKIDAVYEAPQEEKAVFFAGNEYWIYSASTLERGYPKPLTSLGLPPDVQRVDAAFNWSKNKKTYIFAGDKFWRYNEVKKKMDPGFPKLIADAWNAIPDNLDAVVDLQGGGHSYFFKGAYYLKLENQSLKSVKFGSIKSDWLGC
Method: as §2

MMP3 = MMP3 (Homo sapiens, UniProt P08254); experiment: Enzymatic digestion test, MMP3; format: biochemical; details: 3 ug peptide, MMP3 10, 50, 100 ng, 37° C. 4 hours
Sequence of MMP3 (P08254 100-477, species assumed): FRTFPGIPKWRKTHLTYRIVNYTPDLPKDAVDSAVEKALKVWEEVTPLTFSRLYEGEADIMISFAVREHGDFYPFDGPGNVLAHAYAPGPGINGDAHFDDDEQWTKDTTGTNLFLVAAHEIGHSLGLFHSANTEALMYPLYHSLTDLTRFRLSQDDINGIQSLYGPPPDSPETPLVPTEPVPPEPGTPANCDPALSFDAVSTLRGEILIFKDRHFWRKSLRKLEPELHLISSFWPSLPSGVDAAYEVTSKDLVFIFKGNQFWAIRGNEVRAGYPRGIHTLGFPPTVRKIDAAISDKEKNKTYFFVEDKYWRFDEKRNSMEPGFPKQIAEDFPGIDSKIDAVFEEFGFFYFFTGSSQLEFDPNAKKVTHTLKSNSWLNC
Method: as §2

cathepsin K = molecular target: T3, cathepsin K (Homo sapiens, UniProt P43235); experiment: Enzymatic digestion test, cathepsin K; format: biochemical; details: 3 ug peptide, cathepsin K 10, 50, 100 ng, 37° C. 4 hours
T3 sequence (P43235 115-329): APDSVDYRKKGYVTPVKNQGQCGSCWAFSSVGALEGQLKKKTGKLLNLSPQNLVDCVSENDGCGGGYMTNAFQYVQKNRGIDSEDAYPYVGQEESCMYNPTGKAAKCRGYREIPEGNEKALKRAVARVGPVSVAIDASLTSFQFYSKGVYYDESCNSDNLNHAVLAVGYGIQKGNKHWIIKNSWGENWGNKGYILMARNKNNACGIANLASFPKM
Method: as §2

cathepsin L = cathepsin L (Homo sapiens, UniProt P07711); experiment: Enzymatic digestion test, cathepsin L; format: biochemical; details: 3 ug peptide, cathepsin L 100, 200, 800 ng, 37° C. 4 hours
Sequence of cathepsin L (P07711 114-333, species assumed): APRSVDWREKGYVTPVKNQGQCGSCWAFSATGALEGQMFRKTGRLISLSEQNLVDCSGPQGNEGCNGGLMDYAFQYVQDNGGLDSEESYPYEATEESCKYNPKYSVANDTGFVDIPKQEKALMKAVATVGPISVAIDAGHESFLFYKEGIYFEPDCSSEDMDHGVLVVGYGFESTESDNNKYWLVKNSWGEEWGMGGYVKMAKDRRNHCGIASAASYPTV
Method: as §2

cathepsin D = cathepsin D (Homo sapiens, UniProt P07339); experiment: Enzymatic digestion test, cathepsin D; format: biochemical; details: 3 ug peptide, cathepsin D 5, 10, 50 ng, 37° C. 4 hours
Sequence of cathepsin D (P07339 65-412, species assumed): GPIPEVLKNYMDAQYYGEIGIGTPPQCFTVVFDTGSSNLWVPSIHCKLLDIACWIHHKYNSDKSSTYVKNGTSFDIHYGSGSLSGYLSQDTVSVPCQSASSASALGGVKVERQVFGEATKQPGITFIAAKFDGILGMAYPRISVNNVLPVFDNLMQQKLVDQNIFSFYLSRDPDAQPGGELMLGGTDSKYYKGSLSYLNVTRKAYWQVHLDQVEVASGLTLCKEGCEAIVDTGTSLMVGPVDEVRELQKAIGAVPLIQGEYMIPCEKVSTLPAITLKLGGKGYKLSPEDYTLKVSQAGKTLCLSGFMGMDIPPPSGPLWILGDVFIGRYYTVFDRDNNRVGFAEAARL
Method: as §2

[2] = test system: human fibroblast-like synovicyte (FLS); experiment: βig-h3-mediated cell adhesion test, FLS; format: cell-based
Method: as §1, with “βig-h3” for “Human βig-h3”, “fibroblast-like synovicyte (FLS)” for “fibroblast (NIH3T3)”, “HsFJ24, HsFJ25 or HsFJ27” for “hsdhFas-1 peptide”

cleavage through treatment with MMP-2 (MMP2): concentration-dependently cleaved
cleavage through treatment with cathepsin K (cathepsin K): not cleaved
cleavage through treatment with cathepsin L (cathepsin L): not cleaved
cleavage through treatment with cathepsin D (cathepsin D): not cleaved
B1: MFK25: fusion peptide having sequential links of mdhFas-1, MMP consensus substrate GPLGIAG (SEQ ID NO: 7), and QERGDSLA (SEQ ID NO: 10) (protein)
chain: QAMPPEELNKLLANAKELTNILKYHIGDEILVSGGIGALVRLKSLQGDKLEVSSKNNVVSVNKEPVAETDIMEFGPLGIAGVDGQERGDSLAGLE
modifications: MFK25
βig-h3-mediated cell adhesion [1]: even at a very low concentration can inhibit the cell adhesion; also recorded: concentration-dependently inhibited
βig-h3-mediated cell migration (NIH3T3): inhibited the cell migration; also recorded: concentration-dependently inhibited
cleavage through treatment with MMP-1 (MMP1): concentration-dependently cleaved; also recorded: well cleaved
cleavage through treatment with MMP-3 (MMP3): concentration-dependently cleaved; also recorded: well cleaved

B2: HsFJ27: fusion peptide having sequential links of hsdhFas-1, MMP3 substrate GPLGLWARG (SEQ ID NO: 8), and QERGDSLA (SEQ ID NO: 10) (protein)
chain: MALFVRLLALALALALGPAATLARSFRALPPRERSRLLGDAKELANILKYHIGDEILVSGGIGALVRLKSLQGDKLEVSLKNNVVSVNKEPVAEPDIMEFGPLGLWARGVDQERGDSLAGLE
modifications: hsFJ27
βig-h3-mediated adhesion of FLS [2]: concentration-dependently inhibited

B3: HsFJ24: fusion peptide having sequential links of hsdhFas-1, MMP1 substrate GPQGIAG (SEQ ID NO: 6), and QERGDSLA (SEQ ID NO: 10) (protein)
chain: RALPPRERSRLLGDAKELANILKYHIGDEILVSGGIGALVRLKSLQGDKLEVSLKNNVVSVNKEPVAEPDIMEFGPQGIAGVDGQERGDSLAGLE
modifications: hsFJ24
βig-h3-mediated adhesion of FLS [2]: concentration-dependently inhibited

B4: HsFJ25: fusion peptide having sequential links of hsdhFas-1, MMP consensus substrate GPLGIAG (SEQ ID NO: 7), and QERGDSLA (SEQ ID NO: 10) (protein)
chain: B3 chain with Q77L
modifications: hsFj25
βig-h3-mediated adhesion of FLS [2]: concentration-dependently inhibited
